Test system: Escherichia coli TOP10
Experiment: shrunken log2 fold change of peptide-encoding DNA abundance (4.5 h post-induction vs induction); higher = less antimicrobial activity (less host growth inhibition)
Details: time post-induction: 4.5 h; library: site-saturation at positions 5, 18, 19, 20
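Also: peptides expressed intracellularly from a pBAD plasmid library in pooled LB shake-flask culture, induced with 0.3% L-arabinose, DNA abundance read by NGS, three biological replicates, DESeq2 with apeglm shrinkage.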

| Sequence | shrunken log2 fold change |
| --- | --- |
| RRIRFRPPRLPRPRPRPMENPRP | -0.0803 |
| RRIRSRPPRLPRPRPRPLFWPRP | 0.132 |
| RRIRMRPPRLPRPRPRPHISPRP | -0.0571 |
| RRIRMRPPRLPRPRPRPNYMPRP | 1.06 |
| RRIRHRPPRLPRPRPRPDSKPRP | -0.362 |
| RRIRFRPPRLPRPRPRPCYVPRP | -0.0693 |
| RRIRFRPPRLPRPRPRPMNMPRP | -0.546 |
| RRIRWRPPRLPRPRPRPWRWPRP | 0.0969 |
| RRIRPRPPRLPRPRPRPVESPRP | -0.0537 |
| RRIRQRPPRLPRPRPRPNTVPRP | -0.369 |
| RRIRYRPPRLPRPRPRPMNIPRP | -0.124 |
| RRIRERPPRLPRPRPRPMQEPRP | 0.216 |
| RRIRERPPRLPRPRPRPRDWPRP | 0.311 |
| RRIRRRPPRLPRPRPRPATKPRP | 0.0529 |
| RRIRWRPPRLPRPRPRPWSEPRP | -0.206 |
| RRIRSRPPRLPRPRPRPLELPRP | 0.12 |
| RRIRARPPRLPRPRPRPTPYPRP | -0.0244 |
| RRIRYRPPRLPRPRPRPVSVPRP | -0.0879 |
| RRIRDRPPRLPRPRPRPTQEPRP | 0.604 |
| RRIRQRPPRLPRPRPRPQSDPRP | -0.00542 |
| RRIRCRPPRLPRPRPRPHQKPRP | 0.00571 |
| RRIRMRPPRLPRPRPRPLHCPRP | 0.254 |
| RRIRFRPPRLPRPRPRPGQSPRP | 0.0525 |
| RRIRDRPPRLPRPRPRPSGWPRP | 0.558 |
| RRIRDRPPRLPRPRPRPNMRPRP | -0.00803 |

| Sequence | shrunken log2 fold change |
| --- | --- |
| RRIRMRPPRLPRPRPRPTLHPRP | 0.294 |
| RRIRERPPRLPRPRPRPHKMPRP | -0.701 |
| RRIRLRPPRLPRPRPRPQGAPRP | -0.145 |
| RRIRFRPPRLPRPRPRPPFAPRP | 0.423 |
| RRIRKRPPRLPRPRPRPMTEPRP | 0.0103 |
| RRIRMRPPRLPRPRPRPPCMPRP | 0.181 |
| RRIRDRPPRLPRPRPRPAPNPRP | 0.138 |
| RRIRERPPRLPRPRPRPVDDPRP | 0.133 |
| RRIRERPPRLPRPRPRPDYGPRP | -0.015 |
| RRIRVRPPRLPRPRPRPSRSPRP | 0.0405 |
| RRIRTRPPRLPRPRPRPKMKPRP | -0.554 |
| RRIRSRPPRLPRPRPRPWHPPRP | -0.125 |
| RRIRCRPPRLPRPRPRPNDLPRP | 0.0432 |
| RRIRGRPPRLPRPRPRPFMAPRP | 0.211 |
| RRIRLRPPRLPRPRPRPNNYPRP | -0.577 |
| RRIRNRPPRLPRPRPRPASEPRP | -0.0216 |
| RRIRFRPPRLPRPRPRPVWCPRP | -0.158 |
| RRIRKRPPRLPRPRPRPMYGPRP | 0.00748 |
| RRIRSRPPRLPRPRPRPRGIPRP | -0.33 |
| RRIRWRPPRLPRPRPRPCHWPRP | -0.116 |
| RRIRFRPPRLPRPRPRPTFSPRP | -0.0425 |
| RRIRPRPPRLPRPRPRPLLMPRP | -0.185 |
| RRIRARPPRLPRPRPRPCGYPRP | 0.0562 |
| RRIRTRPPRLPRPRPRPSLNPRP | -0.555 |
| RRIRHRPPRLPRPRPRPNQGPRP | -0.479 |

| Sequence | shrunken log2 fold change |
| --- | --- |
| RRIRRRPPRLPRPRPRPAHRPRP | -0.059 |
| RRIRLRPPRLPRPRPRPGDSPRP | -0.23 |
| RRIRPRPPRLPRPRPRPSMPPRP | -0.208 |
| RRIRWRPPRLPRPRPRPFIPPRP | -1.15 |
| RRIRARPPRLPRPRPRPHVTPRP | 0.0281 |
| RRIRSRPPRLPRPRPRPPSTPRP | 0.141 |
| RRIRFRPPRLPRPRPRPRCPPRP | 0.262 |
| RRIRQRPPRLPRPRPRPMQKPRP | 0.0524 |
| RRIRVRPPRLPRPRPRPLIAPRP | -0.0308 |
| RRIRKRPPRLPRPRPRPQQSPRP | -0.0568 |
| RRIRNRPPRLPRPRPRPFMPPRP | -0.209 |
| RRIRFRPPRLPRPRPRPEMPPRP | -0.142 |
| RRIRHRPPRLPRPRPRPSVDPRP | 0.0776 |
| RRIRLRPPRLPRPRPRPGATPRP | 0.527 |
| RRIRYRPPRLPRPRPRPHECPRP | 0.0244 |
| RRIRARPPRLPRPRPRPWEHPRP | -0.0255 |
| RRIRLRPPRLPRPRPRPGRIPRP | -0.136 |
| RRIRERPPRLPRPRPRPTYCPRP | 0.0353 |
| RRIRYRPPRLPRPRPRPNEPPRP | 0.00196 |
| RRIRDRPPRLPRPRPRPKTCPRP | 0.00179 |
| RRIRCRPPRLPRPRPRPISTPRP | -0.245 |
| RRIRKRPPRLPRPRPRPEPQPRP | 0.637 |
| RRIRNRPPRLPRPRPRPMWHPRP | -0.404 |
| RRIRFRPPRLPRPRPRPYRMPRP | -0.571 |
| RRIRERPPRLPRPRPRPIMLPRP | -0.227 |

| Sequence | shrunken log2 fold change |
| --- | --- |
| RRIRIRPPRLPRPRPRPQYVPRP | -0.0421 |
| RRIRVRPPRLPRPRPRPALFPRP | 0.175 |
| RRIRTRPPRLPRPRPRPTECPRP | -0.0493 |
| RRIRHRPPRLPRPRPRPPIFPRP | -0.163 |
| RRIRIRPPRLPRPRPRPRCFPRP | -0.141 |
| RRIRVRPPRLPRPRPRPGDTPRP | -0.0412 |
| RRIRWRPPRLPRPRPRPDTEPRP | 0.14 |
| RRIRGRPPRLPRPRPRPYQRPRP | 0.189 |
| RRIRMRPPRLPRPRPRPDGQPRP | 1.15 |
| RRIRHRPPRLPRPRPRPAGWPRP | 0.449 |
| RRIRIRPPRLPRPRPRPNFTPRP | -0.545 |
| RRIRNRPPRLPRPRPRPLWEPRP | -0.106 |
| RRIRCRPPRLPRPRPRPVHFPRP | 0.128 |
| RRIRCRPPRLPRPRPRPGRIPRP | -0.231 |
| RRIRYRPPRLPRPRPRPPREPRP | -0.0166 |
| RRIRYRPPRLPRPRPRPDPEPRP | -0.345 |
| RRIRRRPPRLPRPRPRPEWHPRP | -0.107 |
| RRIRCRPPRLPRPRPRPNHLPRP | -0.437 |
| RRIRRRPPRLPRPRPRPKIPPRP | 0.0427 |
| RRIRIRPPRLPRPRPRPAPIPRP | -0.0266 |
| RRIRNRPPRLPRPRPRPLWCPRP | -0.0608 |
| RRIRIRPPRLPRPRPRPTKAPRP | -0.162 |
| RRIRNRPPRLPRPRPRPDYQPRP | -0.165 |
| RRIRKRPPRLPRPRPRPHFPPRP | 0.179 |
| RRIRMRPPRLPRPRPRPLDQPRP | 1.12 |

| Sequence | shrunken log2 fold change |
| --- | --- |
| RRIRERPPRLPRPRPRPPRLPRP | 0.178 |
| RRIRYRPPRLPRPRPRPIKNPRP | -0.275 |
| RRIRFRPPRLPRPRPRPESNPRP | 0.224 |
| RRIRKRPPRLPRPRPRPGHFPRP | 0.0417 |
| RRIRTRPPRLPRPRPRPTSNPRP | -0.43 |
| RRIRQRPPRLPRPRPRPNKYPRP | -0.686 |
| RRIRTRPPRLPRPRPRPQVGPRP | -0.137 |
| RRIRVRPPRLPRPRPRPGWFPRP | 0.22 |
| RRIRERPPRLPRPRPRPLISPRP | -0.0142 |
| RRIRARPPRLPRPRPRPQTMPRP | 0.108 |
| RRIRQRPPRLPRPRPRPYTKPRP | -0.111 |
| RRIRKRPPRLPRPRPRPHRQPRP | 0.277 |
| RRIRSRPPRLPRPRPRPGHWPRP | 0.286 |
| RRIRARPPRLPRPRPRPTCGPRP | 0.512 |
| RRIRSRPPRLPRPRPRPSNVPRP | -0.47 |
| RRIRVRPPRLPRPRPRPDIHPRP | -0.427 |
| RRIRIRPPRLPRPRPRPKCTPRP | -0.233 |
| RRIRERPPRLPRPRPRPQSLPRP | -0.0684 |
| RRIRQRPPRLPRPRPRPSFPPRP | -0.125 |
| RRIRNRPPRLPRPRPRPSLYPRP | -0.0524 |
| RRIRGRPPRLPRPRPRPYHFPRP | -0.041 |
| RRIRRRPPRLPRPRPRPIKSPRP | -0.254 |
| RRIRNRPPRLPRPRPRPNVLPRP | -0.178 |
| RRIRERPPRLPRPRPRPSVAPRP | 0.132 |
| RRIRARPPRLPRPRPRPNKLPRP | -0.206 |

| Sequence | shrunken log2 fold change |
| --- | --- |
| RRIRYRPPRLPRPRPRPYMSPRP | -0.00192 |
| RRIRLRPPRLPRPRPRPLADPRP | -0.0654 |
| RRIRVRPPRLPRPRPRPGGAPRP | 0.603 |
| RRIRERPPRLPRPRPRPRCDPRP | -0.044 |
| RRIRERPPRLPRPRPRPLHKPRP | -0.0653 |
| RRIRMRPPRLPRPRPRPKIHPRP | -0.0387 |
| RRIRCRPPRLPRPRPRPCSDPRP | -0.0728 |
| RRIRARPPRLPRPRPRPVASPRP | 0.595 |
| RRIRHRPPRLPRPRPRPWHYPRP | 0.137 |
| RRIRERPPRLPRPRPRPGNMPRP | -0.0808 |
| RRIRSRPPRLPRPRPRPFKPPRP | -0.297 |
| RRIRRRPPRLPRPRPRPMHGPRP | 0.144 |
| RRIRKRPPRLPRPRPRPHIFPRP | -0.0478 |
| RRIRQRPPRLPRPRPRPMRVPRP | 0.189 |
| RRIRPRPPRLPRPRPRPAYQPRP | -0.0181 |
| RRIRDRPPRLPRPRPRPTTVPRP | 0.258 |
| RRIRFRPPRLPRPRPRPDPIPRP | 0.159 |
| RRIRPRPPRLPRPRPRPCCIPRP | -0.269 |
| RRIRGRPPRLPRPRPRPWKYPRP | -0.115 |
| RRIRSRPPRLPRPRPRPHTKPRP | 0.0141 |
| RRIRGRPPRLPRPRPRPDPIPRP | 0.126 |
| RRIRDRPPRLPRPRPRPPIFPRP | -0.129 |
| RRIRQRPPRLPRPRPRPFHTPRP | -0.0573 |
| RRIRYRPPRLPRPRPRPFLKPRP | -0.122 |
| RRIRHRPPRLPRPRPRPENRPRP | 0.019 |

Source: the supplement of paper PMC9112550, “Optimization of the antimicrobial peptide Bac7 by deep mutational scanning” (BMC Biology, 2022)
